What was measured:
[1] = tested on: HPP-CFC; assay: High proliferative potential colony (HPP-CFC) assay after pre-incubation; type: cell-based, mouse; settings: 200 ng/ml, 4 hours pre-incubation, day 14
Method: An in vitro assay for assessing murine reconstituting stem cells and early precursors is the high proliferative potential colony ([…]) assay; other related assays, e.g., CFU-A, CFU-GM, CFU-E, and CFU-GEMM, detect progressively restricted progenitor populations (M. Moore, Blood 177:2122-2128, 1991). […] BDF1 mice were treated with 5-fluorouracil (200 mg/kg i.p.) before their bone marrow was assayed for HPP-CFC numbers. Cells were washed by centrifugation and incubated at densities of 10^6 to 5×10^6 /ml in medium with either no added agent (Controls), pINPROL (25 ng/ml) or MIP-1α (200 ng/ml) for 4 hours. After incubation, cells were washed and plated in agar (0.3%) with 30% FCS and combined conditioned medium from 5637 and WEHI-3B cell lines (7.5% of each conditioned medium, as recommended by Sharp et al., 1991). Plating concentration was 5×10^4 cells/ml in 60 mm dishes.

[2] = tested on: CFU-MIX; assay: CFU-MIX cycling assay in vitro with Ara C; type: cell-based, mouse
Method: A similar assay can be performed in vitro, using the cycling status of CFU-MIX instead of CFU-S. The assay is performed as described above for the CFU-S assay except that cytosine arabinoside (Ara C, 30 mg/ml) is used as the cycle-specific toxic agent instead of high dose tritiated thymidine (see B. I. Lord in Haemopoiesis—A Practical Approach, N. G. Testa and G. Molineux (Eds.), IRL Press 1993; Pragnell et al. in Culture of Hematopoietic Cells, R. I. Freshney, I. B. Pragnell and M. G. Freshney (Eds.), Wiley Liss 1994) and a mouse strain with high endogenous cycling rates (Balb/c) is used instead of testosterone-treated BDF1 mice.
To test the activity of these sequences, the CFU-MIX cycling assay was conducted as described in Example 14. As shown in Tables 17-19, these peptides all are active in this assay.

B1: macrophage inflammatory protein 1-alpha (protein, UniProt P10147 24-92, looked up)
C-C motif chemokine 3: SLAADTPTACCFSYTSRQIPQNFIADYFETSSQCSKPGVIFLTKRSRQVCADPSEEWVQKYVSDLELSA
[1]
  % of Control (HPP-CFU): 101%

B2: myoglobin: structurally related protein, inactive in the assay (protein, UniProt P02144 2-154, looked up)
Myoglobin: GLSDGEWQLVLNVWGKVEADIPGHGQEVLIRLFKGHPETLEKFDKFKHLKSEDEMKASEDLKKHGATVLTALGGILKKKGHHEAEIKPLAQSHATKHKIPVKYLEFISECIIQVLQSKHPGDFGADAQGAMNKALELFRKDMASNYKELGFQG
[2]
  activity in the CFU-MIX cycling assay: inactive
